Source: PMC7046716, “Oligomerization and characteristics of phosphoenolpyruvate carboxylase in Synechococcus PCC 7002” (Scientific Reports, 2020)
“And” between values parts separate entries of the source, which are not always exact repeats. Equal entries are not always repeated.

Legend:
[1] = biological target: Phosphoenolpyruvate carboxylase (PEPc) from Synechococcus PCC 7002 (Synechococcus PCC 7002); experiment: SEC; HiLoad 16/60 Superdex 200, 4 °C, TBS pH 8.0 with 10 mM MgCl2, 5 mM NaHCO3 and 5 mM PEP (in vitro reaction); 500 µg protein at 0.87 mg/ml; dimer and tetramer peaks
[2] = biological target: Phosphoenolpyruvate carboxylase (PEPc) from Synechococcus PCC 7002 (Synechococcus PCC 7002); experiment: SEC; HiLoad 16/60 Superdex 200, 4 °C, TBS pH 8.0 with 5 mM PEP; 500 µg protein at 0.87 mg/ml; dimer and tetramer peaks
[3] = biological target: Phosphoenolpyruvate carboxylase (PEPc) from Synechococcus PCC 7002 (Synechococcus PCC 7002); experiment: SEC-SAXS; Shodex KW-403 4.6 ml column, room temperature, 50 µl protein at 6.5 or 0.87 mg/ml in TBS pH 8.0 or TBS with 25 mM MgCl2; beamline B21, Diamond Light Source; three peaks analysed separately
[4] = biological target: Phosphoenolpyruvate carboxylase (PEPc) from Synechococcus PCC 7002 (Synechococcus PCC 7002); experiment: SEC; HiLoad 16/60 Superdex 200, 4 °C, TBS pH 8.0 with 10 mM MgCl2 and 5 mM PEP; 500 µg protein at 0.87 mg/ml; dimer and tetramer peaks
[5] = biological target: Phosphoenolpyruvate carboxylase (PEPc) from Synechococcus PCC 7002 (Synechococcus PCC 7002); experiment: SEC; HiLoad 16/60 Superdex 200, 4 °C, TBS pH 8.0 with 5 mM NaHCO3 and 5 mM PEP; 500 µg protein at 0.87 mg/ml; dimer and tetramer peaks
[6] = biological target: Phosphoenolpyruvate carboxylase (PEPc) from Synechococcus PCC 7002 (Synechococcus PCC 7002); experiment: SEC; HiLoad 16/60 Superdex 200, 4 °C, TBS pH 8.0 with 25 mM MgCl2 (Mg_25); 500 µg protein at 0.87 mg/ml; dimer and tetramer peaks
[7] = biological target: Phosphoenolpyruvate carboxylase (PEPc) from Synechococcus PCC 7002 (Synechococcus PCC 7002); experiment: SEC; HiLoad 16/60 Superdex 200, 4 °C, TBS (100 mM Tris-HCl, 150 mM NaCl) pH 8.0, no addition; 500 µg protein at 0.87 mg/ml, incubated 30 min at room temperature in the same buffer; dimer and tetramer peaks
[8] = biological target: Phosphoenolpyruvate carboxylase (PEPc) from Synechococcus PCC 7002 (Synechococcus PCC 7002); experiment: SEC; HiLoad 16/60 Superdex 200, 4 °C, TBS pH 8.0 with 10 mM MgCl2 and 5 mM NaHCO3; 500 µg protein at 0.87 mg/ml; dimer and tetramer peaks
[9] = biological target: Phosphoenolpyruvate carboxylase (PEPc) from Synechococcus PCC 7002 (Synechococcus PCC 7002); experiment: SEC; HiLoad 16/60 Superdex 200, 4 °C, TBS pH 8.0 with 10 mM MgCl2 (Mg_10); 500 µg protein at 0.87 mg/ml; dimer and tetramer peaks
[10] = biological target: Phosphoenolpyruvate carboxylase (PEPc) from Synechococcus PCC 7002 (Synechococcus PCC 7002); experiment: SEC; HiLoad 16/60 Superdex 200, 4 °C, TBS pH 8.0 with 5 mM NaHCO3; 500 µg protein at 0.87 mg/ml; dimer and tetramer peaks
[11] = tested on: T1, PEPc PCC 7002 (Strep-column purified, mixed oligomer population); experiment: malate dehydrogenase-coupled NADH assay, […] nm, Hanes-Woolf plot; format: biochemical, Picosynechococcus sp. PCC 7002; conditions: pH 7.5, 35 °C, mixed dimer/tetramer
T1 construct: gene ppc; N-terminal Strep-tag kept, E. coli BL21, pETBB; dimer/tetramer mixture purified with Mg2+

[12] = tested on: T2, T_PEPc PCC 7002 (tetramer fraction of PEPc from Synechococcus PCC 7002); experiment: as above; format: biochemical, Picosynechococcus sp. PCC 7002; conditions: pH 8.0, 35 °C, SEC tetramer fraction
T2 construct: gene ppc; N-terminal Strep-tag kept, E. coli BL21, pETBB

[13] = 10 mM MgCl2, co-substrate PEP (5 mM in the standard assay)
[14] = 10 mM MgCl2, co-substrate NaHCO3 (5 mM in the standard assay)

Compound: Phosphoenolpyruvate carboxylase (PEPc) from Synechococcus PCC 7002 (enzyme)
- stoichiometry N [1]: 4 and 2
- ratio tetramer:dimer (peak values) (tetramer:dimer) [2]: 1.1
- stoichiometry N [2]: 4 and 2
- stoichiometry N [3]: 4 and 2
- ratio tetramer:dimer (peak values) (tetramer:dimer) [4]: 1.3
- stoichiometry N [4]: 4 and 2
- ratio tetramer:dimer (peak values) (tetramer:dimer) [5]: 0.8
- stoichiometry N [5]: 4 and 2
- ratio tetramer:dimer (peak values) (tetramer:dimer) [6]: 1.4
- stoichiometry N [6]: 4 and 2
- ratio tetramer:dimer (peak values) (tetramer:dimer) [7]: 0
- stoichiometry N [7]: 2
- ratio tetramer:dimer (peak values) (tetramer:dimer) [8]: 0.8
- stoichiometry N [8]: 4 and 2
- ratio tetramer:dimer (peak values) (tetramer:dimer) [9]: 0
- stoichiometry N [9]: 2
- ratio tetramer:dimer (peak values) (tetramer:dimer) [10]: 0
- stoichiometry N [10]: 2

Compound: O=C(O)O [HCO3^−]
- Km [11, 13]: 970 µM
- Km [12, 13]: 240 µM

Compound: C=C(OP(=O)(O)O)C(=O)O [PEP]
- Km [11, 14]: 1060 µM
- Km [12, 14]: 770 µM
